The text below walks through data of the DeepSol protein solubility set.

The nature of the series: soluble on expression in E. coli; label from the status in PepcDB or PDB records.
In the case of “SLGELFAVFNEKLTIPEQEALMFLYAYMPTGDVTDYTGDYYLENVRLSDQARREMPWGKEIPDDVFRHFVLPIRVNNENLDDSRRVFYNELKDRVKNLSLHDAVLEVNHWCHEKVIYTPSDARTSAPLASVKTAYGRCGEESTFTVAALRSVGIPARQVYTPRWAHTDDNHAWVEAWVDGKWYFFGACEPEPVLNLGWFNAPASRGMLMHTKVFGRYTGQEEIMYETPNYTEINVIDNYAPTAKGSVLVTDAEGQPVADATVEFKVYNYAEFYTVATKHTDRSGHASLTAGKGDMLVWASKDGRFGYSKLSFGKDNELKITLDKNASETYSLPLDIVPPAEGANLPEVTPEQRTENDRRMAQEDSIRNAYVATFITEEQARTFAKENKLDETETVRLLIASRGNHQTLTDFLSDAVKADKAGQAISLLKVVSAKDLRDVSPEVLNDHLNNSGLPASEDFCSNVLNPRVANEMITPYKAFFRKEIPASEAEAFRKNPQALVEWCKKEITINNELNSQRIPMSPMGVWKARVADEKSRNIFFVSMARSLGIPAWIDEVTGKIQYRTFNDNNLKNGKVYDVDFEAAQQTQAPTGTLVARYRPIPSLSDPKYYSHFTLSKFRNGTFQLLNYDEGDVDMGGGATWSNLLKNGARLDTGYYMMVTGTRMASGAVLANVTFFTIEEGKTTTVDLVMRESKDQVQVIGNFNSESTYLPIGTSEPQSILQTCGRGYYVVAVLGAGQEPTNHALRDIAALSGEFEKWGRKMVLLFPSEEQYKKFRPSEFPGLPSTITYGIDVDGAIQKQIAESMKLPNSTILPMFIIGDTFNRVVFVSQGYTIGLGEQLMKVIHGEG”, the “soluble on expression in E. coli” value was “soluble”.

As for “MRAGVREVIDDSSERTLQQVIERAFLRTKGAIIRQKRVFGFVSAKGGDGGSCIAANFAFALSQEPDIHVLAVDISLPFGDLDMYLSGNTHSQDLADISNASDRLDKSLLDTMVQHISPSLDLIPSPATFEKIVNIEPERVSDLIHIAASFYDYIIVDFGASIDHVGVWVLEHLDELCIVTTPSLQSLRRAGQLLKLCKEFEKPISRIEIILNRADTNSRITSDEIEKVIGRPISKRIPQDEDAMQESLLSGQSVLKVAPKSQLSKTIVDWALHLNGVSRPNKRSIWERLKIK”, the “soluble on expression in E. coli” value is listed as “not soluble”.

For “MSLGETFTITKMNVERIKQEERLFCKSCASPVMIKAGQIKIPHFAHEKTMKCAFASEGESEEHLAAKKQIMAWYCYQSIPVEVESYFPEIKRQADIFVNGKAVIEFQRSSISISEMIQRTMDYLSIGLEVHWILGQVVRKEKGRICLSAFQQAFIQSDKKLGYHFWHYSTEREICTLYYHLTFEKGNRFFASEMKFSMKAPFSEWKKKLARIITRHAYVKRDRELERQKICFYYAKFKKHGQFMQKLFNAGYYLHYLPKEIGVDLEEQFLVITPAVEWQFDLWEKFFKGLEKGDTFSECCFFESFQSVVTQILTIWLSPNESLKLGKSYLSYLIGEGVLSTIPDNRYRVKRKMVFTNTRAAHIEGHHHHHH”, the “soluble on expression in E. coli” value was “not soluble”.

On to “SEEDAGNGGFRKRMRASDEEGKGDSRDGISLDHTIENEEAETKLVASDEMELSIAQILDKIESFTQTVSNLLETGKTMLKELSNEFEERLIMIHKEHVEKWQDEIKELRLLDASNEETTSLLHNARYLIQNPSIEQ”, for which the “soluble on expression in E. coli” value is reported as “soluble”.

As to “MKDLIKVQQKLIPDLIDKMYRRFYILSTISQNQPVGRRSLSEHMDMTERVLRSETDMLKKQELIRVKPTGMEITNEGTEVLAQLGEYFNVYSDDHKLASAIKDKFHIKDVHVIPGDSDSNRTVKREMGQQAGQLLEGILYEDAIVSVTGGSTMACVSESIHLLPFNVFFVPARGGLGENVVYQANTIASSMAQQAGGYYTTLYVPDNVSESTYDTLMLEPSVMHTLDKIKQANITIHGIGDALKMAHRRQSSQNVIDNLQHHQAVGEAFGYYFDAQGQIVHKVKTIGLQLEDLENKDFIFAVAGGQSKGEAIKAYLSIAPENTVLITDEAAAKVILQ”, the “soluble on expression in E. coli” value is on record as “not soluble”.

As to “MNLTDYVKEVSRQDFGIEFQHTASWNSRLQTTGGRFFPEDGHLDFNPKFCKKGDAGTFRKIVRHELCHYHLYYAGKGYRHGDKDFKDLLLQVNGVRYAPSIQSNTFYHYYQCESCGQVYQRKRRMNTKKYACGNCHGKLRHQNQSLEHHHHHH”, the “soluble on expression in E. coli” value was “not soluble”.

As for “MEDSCVLRGVMINKDVTHPRMRRYIKNPRIVLLDSSLEYKKGESQTDIEITREEDFTRILQMEEEYIHQLCEDIIQLKPDVVITEKGISDLAQHYLMRANVTAIRRVRKTDNNRIARACGARIVSRPEELREDDVGTGAGLLEIKKIGDEYFTFITDCKDPKACTILLRGASHHHHHH”, the “soluble on expression in E. coli” value is “soluble”.

In the case of “MTENAEKFLWGVATSAYQIEGATQEDGRGPSIWDAFAQRPGAIRDGSTGEPACDHYRRYEEDIALMQSLGVRAYRFSVAWPRILPEGRGRINPKGLAFYDRLVDRLLASGITPFLTLYHWDLPLALEERGGWRSRETAFAFAEYAEAVARALADRVPFFATLNEPWCSAFLGHWTGEHAPGLRNLEAALRAAHHLLLGHGLAVEALRAAGARRVGIVLNFAPAYGEDPEAVDVADRYHNRFFLDPILGKGYPESPFRDPPPVPILSRDLELVARPLDFLGVNYYAPVRVAPGTGTLPVRYLPPEGPATAMGWEVYPEGLYHLLKRLGREVPWPLYVTENGAAYPDLWTGEAVVEDPERVAYLEAHVEAALRAREEGVDLRGYFVWSLMDNFEWAFGYTRRFGLYYVDFPSQRRIPKRSALWYRERIARAQT”, the “soluble on expression in E. coli” value is “soluble”.

Take “MSQLMQLKDVAESTRLGPLSGEVSAGEILHLVGPNGAGKSTLLARMAGLTSGEGSIRFGGAPLEAWATATLAQHRAYLAQQQNPPFAMPVWHYLTLHQPDKTRTGQLNEVADMLGLGDKLGRSVNQLSGGEWQRVRLAAVVLQIHPDANPVGQLLLLDEPMNSLDVAQQNALDRVLHHLCQAGIAIVMSSHDLNHTLRHAHKAWLLKRGKLIACGRREEVLTPSYLAQAYGLRFRRLDVEGHPMLISAT”: the “soluble on expression in E. coli” value was “not soluble”.

On to “MKQIYFGGGCFWGTQKYFDLIKGVQKTSVGYLNSNMKNPTYEQVCSGQTNAVEAVFVEYDENKVSLNELIDAFFKVIDPTIRNRQGNDIGTQYRTGVYWVDPQDEQLITQKFRELQANYPKPIVTENRAMENYFLAEEYHQDYLKKNPHGYCHIKFD”, for which the “soluble on expression in E. coli” value was “soluble”.

Regarding “MYCQRLRQLRKAHKLTMEQLAEKIGIAKSSYGGYEAESKKPPLDKLVILARLYDVSVDYILGLTDDPDPKVERKNLKEFLEKPDIHWDGYKLTPEILDPIRKILKLVTANNN”, the “soluble on expression in E. coli” value is listed as “not soluble”.

“MSNNETMMFNVEKEKVNEARELLVSVYKALKEKGYNPINQIVGYILSGDPTYITNHLDARSSIRKVERDELLEEILRCYLEECIGKEGSV”: the “soluble on expression in E. coli” value is recorded as “soluble”.

Take “MSEQYTTGVVVTGKVTGIQDYGAFVALDAETQGLVHISEITNGYVKDIHDFLKVGDTVEVKVLSIDEEHRKMSLSLKAAKRKQGRILIPNPSENGFNTLREKLTEWIEESELTK”: the “soluble on expression in E. coli” value was “not soluble”.

“MSLSQANRVFITGRSALTASGATADETWNAIISGQCGIDEINFWELSEWSHRLGGEIKDFQPSKMLPDRKLIKVISRQDIMGINAAVQAVEHSKMIAYRDSLADADLFNEQTAIYVGSPGNKYFQQYDFIPLLAKTHGDMRSFANQLFDEVHPMWLLRILPNNVLAYTGITYGFKGPNHNVTNHAVGGTQAILEAYHAIRSGQAERAVVVAYDIGTEPQGLFYYEKLGVVSNRHLKPFDKEHDGTILAEGAAALVLESEASVKSRAATCYGEIVGGLSASEATGLFSIEADGQHLASLMGQTLSTSGINSEEIGLIVTHGNGNSKSDDSEALAIKSVFKQEEVPATAFKWSMGHTLCASGVLDAVLTTYALETKCVPGIANFQQIAPTCEGLSVSREHREIISNSYAMMINRGFASMNVCLVIKACEEGHHHHHH”: the “soluble on expression in E. coli” value is “not soluble”.

With “MGGLLFSSLQHCQQGFVISNELRQQQSELTSTWDLMLQTRINLSRSAARMMMDASNQQSSAKTDLLQNAKTTLAQAAAHYANFKNMTPLPAMAEASANVDEKYQRYQAALAELIQFLDNGNMDAYFAQPTQGMQNALGEALGNYARVSENLYRQTFDQSAHDYR”, the “soluble on expression in E. coli” value was “soluble”.
